# Values quoted from earlier work as cited in article PMC1991591.
# Target: Fus3 (Saccharomyces cerevisiae) (UniProt P16892)
# UniProt P16892, sequence (P16892 whole entry): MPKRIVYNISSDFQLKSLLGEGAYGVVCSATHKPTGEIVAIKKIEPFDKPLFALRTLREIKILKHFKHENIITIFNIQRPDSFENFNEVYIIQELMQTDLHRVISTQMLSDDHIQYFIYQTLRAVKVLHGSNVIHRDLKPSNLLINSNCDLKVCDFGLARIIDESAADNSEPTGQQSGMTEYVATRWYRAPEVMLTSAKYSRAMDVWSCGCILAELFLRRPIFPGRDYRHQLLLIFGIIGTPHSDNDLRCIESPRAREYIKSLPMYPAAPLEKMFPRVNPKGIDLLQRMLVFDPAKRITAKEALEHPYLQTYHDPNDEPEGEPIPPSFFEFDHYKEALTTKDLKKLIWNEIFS
substance,measurement,value
Ste5 (from UniProt P32917),Kd,1000 nM
